Measured values reported in paper PMC6167709.

Tests used:
[1] = SEC; ConSOSL.UFO.664 from concentrated 293T.17 supernatant, in PBS, Enrich SEC 650 column; oligomeric state of the gp140
[2] = biological target: ConSOSL.UFO.664 gp140 (HIV-1 (group M consensus, ConS)); assay: as above

Substance: ConSOSL.UFO.664 gp140
- share of the trimer peak in the SEC profile [1]: trimer peak ∼54%
- stoichiometry N [2]: 3
